{"source": "patent US20220204592A1", "about": "(VISTERRA, published 2022)", "binders": {"B1": {"name": "Ab A18 (antibody, V domains shown)", "VH": "EVQLLESGGGLVKPGQSLKLSCAASGFTFTSYGMHWVRQPPGKGLEWVAVISYDGSYKYYADSVQGRFTISRDNSKNTLYLQMNSLRAEDTAVYYCAKDSRLRSLLYFEWLSQGYFNPWGAGTTLTVSS", "VL": "not shown"}, "B2": {"name": "Ab 032 (antibody, V domains shown)", "VH": "QVQLLETGGGLVKPGQSLKLSCAASGFTFTSYAMHWVRQPPGKGLEWVAVVSYDGNYKYYADSVQGRFTISRDNSKNTLYLQMNSLRAEDTAVYYCAKDSRLRSLLYFEWLSQGYFNPWGQGTTLTVSS", "VL": "DIQMTQSPSSLSASVGDRVTITCRSSQSITFNYKNYLAWYQQKPGKAPKLLIYWGSYLESGVPSRFSGSGSGTDFTLTISSLQPEDFATYYCQQHYRTPPSFGQGTKVEIK"}, "B3": {"name": "Ab 044 (antibody, V domains shown)", "VH": "QVQLLETGGGLVKPGQSLKLSCAASGFTFTSYAMHWVRQPPGKGLEWVAVVSYDGNYKYYADSVQGRFTISRDNSKNTLYLQMNSLRAEDTAVYYCAKDSRLRSLLYFEWLSQGYFNPWGQGTTLTVSS", "VL": "DIQMTQSPSSLSASVGDRVTITCRSSQSITFDYKNYLAWYQQKPGKAPKLLIYWGSYLESGVPSRFSGSGSGTDFTLTISSLQPEDFATYYCQQHYRTPPSFGQGTKVEIK"}}, "key": {"[1]": {"target": "T1, H1 hemagglutinin (A/Solomon Islands/3/2006) (influenza A virus A/Solomon …)", "assay": "ELISA on coated HA, relative Kd (4-parameter fit)"}, "[2]": {"target": "H3 hemagglutinin of H3N2 strain X-31 (influenza A virus X-31 (H3N2), UniProt P03437 17-566)", "assay": "cell-based or functional assay"}, "[3]": {"target": "T1, H1 hemagglutinin (A/Solomon …)", "assay": "ELISA on coated HA, relative Kd (4-parameter fit)", "remark": "listed apart in the source"}, "[4]": {"target": "H3 hemagglutinin (A/Shangdong/09/93) (influenza A virus A/Shangdong/09/93 …)", "assay": "cell-based or functional assay"}, "[5]": {"target": "H1 hemagglutinin of H1N1 Solomon Islands (isolate not specified)", "assay": "cell-based or functional assay"}, "[6]": {"target": "H3 hemagglutinin (A/Fujian/411/2003) (influenza A virus A/Fujian/411/2003 …)", "assay": "cell-based or functional assay"}, "[7]": {"target": "H1 hemagglutinin (A/California/04/2009) (influenza A virus A/California/04/2009 …)", "assay": "cell-based or functional assay"}, "[8]": {"target": "H5 hemagglutinin (A/Duck/MN/1525/81) (influenza A virus A/Duck/MN/1525/81 …)", "assay": "cell-based or functional assay"}, "[9]": {"target": "T2, H1 hemagglutinin (A/Solomon Islands/20/1999) (influenza A virus A/Solomon …)", "T2 construct": "ELISA antigen", "assay": "ELISA on coated HA"}}, "note": "Read-outs that look alike come from different tables or passages of the source."}
{"binder": "B1", "values": [{"measurement": "Kd", "setting": "[1]", "value": 0.144, "unit": "nM"}, {"measurement": "IC50 (RT-PCR, neutralisation)", "setting": "[2]", "value": 0.4, "unit": "µg/mL"}]}
{"binder": "B2", "values": [{"measurement": "Kd", "setting": "[3]", "value": "< 0.025", "unit": "nM"}]}
{"binder": "B3", "values": [{"measurement": "EC50, Neutral Red (CPE inhibition)", "setting": "[4]", "value": 0.6, "unit": "µg/mL"}, {"measurement": "EC50, Neutral Red (CPE inhibition)", "setting": "[5]", "value": 1.2, "unit": "µg/mL"}, {"measurement": "EC50, Neutral Red (CPE inhibition)", "setting": "[6]", "value": 0.3, "unit": "µg/mL"}, {"measurement": "EC50, Neutral Red (CPE inhibition)", "setting": "[7]", "value": 5.1, "unit": "µg/mL"}, {"measurement": "EC50, Neutral Red (CPE inhibition)", "setting": "[8]", "value": 1.5, "unit": "µg/mL"}, {"measurement": "Kd", "setting": "[9]", "value": "< 0.5", "unit": "nM"}]}
